Data: publication PMC8571082 (2021)

B1: Mint3NT, N-terminal fragment (1–214) of Mint3 [human] / factor inhibiting HIF-1 (FIH-1), full-length [human] (parent complex)
chain 1: MDFPTISRSPSGPPAMDLEGPRDILVPSEDLTPDSQWDPMPGGPGSLSRMELDESSLQELVQQFEALPGDLVGPSPGGAPCPLHIATGHGLASQEIADAHGLLSAEAGRDDLLGLLHCEECPPSQTGPEEPLEPAPRLLQPPEDPDEDSDSPEWVEGASAEQEGSRSSSSSPEPWLETVPLVTPEEPPAGAQSPETLASYPAPQEVPGPCDHED
chain 2: MAATAAEAVASGSGEPREEAGALGPAWDESQLRSYSFPTRPIPRLSQSDPRAEELIENEEPVVLTDTNLVYPALKWDLEYLQENIGNGDFSVYSASTHKFLYYDEKKMANFQNFKPRSNREEMKFHEFVEKLQDIQQRGGEERLYLQQTLNDTVGRKIVMDFLGFNWNWINKQQGKRGWGQLTSNLLLIGMEGNVTPAHYDEQQNFFAQIKGYKRCILFPPDQFECLYPYPVHHPCDRQSQVDFDNPDYERFPNFQNVVGYETVVGPGDVLYIPMYWWHHIESLLNGGITITVNFWYKGAPTPKRIEYPLKAHQKVAIMRNIEKMLGEALGNPQEVGPLLNTMIKGRYN

Variants of: B1
Assay: ITC; measured three times for each FIH-1 mutant

Which dG does the source give for chain 2 E250A here?
The dG was -9 kcal/mol.

For chain 2 E29A, which dG is on record?
Its dG is -9.1 kcal/mol.

For chain 2 Y71A, which dG is on record?
Its dG is -8.6 kcal/mol.

Which dG does the source give for chain 2 D248A here?
Its dG is -9.3 kcal/mol.

chain 2 E79A was tested. Which dG did it give?
The dG was -8.7 kcal/mol.

How did the dG turn out when chain 2 K75A was run?
The dG was -8.8 kcal/mol.

Which dG does the source give for chain 2 N171A here?
The dG was -8.7 kcal/mol.
